Source: US20250283117, “RNA-GUIDED NUCLEASES AND ACTIVE FRAGMENTS AND VARIANTS THEREOF AND METHODS OF USE” (Life Edit Therapeutics, Inc., published 2025)

B1: Guide 168 ; HPRT1 target of guide 168 (ssRNA ; dsDNA)
RNA: CACAUCUCGAGCAAGACGUUGUCAUAGUUCCAUUAUUGCAAAGGCUUUGAUGUUUCUAUGAUAAGGGCUUAGGCCCGUGGCGUUGGGGAUCGCCUGCCCAUUUUAAUGGGCUUCUCCCCAUCUAUUU
DNA 1: CACATCTCGAGCAAGACGTT
DNA 2: AACGTCTTGCTCGAGATGTG
B2: Guide 185 ; RelA target of guide 185 (ssRNA ; dsDNA)
RNA: GGACAGUGCGCAUCUCCCUGGUCAUAGUUCCAUUAUUGCAAAGGCUUUGAUGUUUCUAUGAUAAGGGCUUAGGCCCGUGGCGUUGGGGAUCGCCUGCCCAUUUUAAUGGGCUUCUCCCCAUCUAUUU
DNA 1: GGACAGTGCGCATCTCCCTG
DNA 2: CAGGGAGATGCGCACTGTCC

Molecular target: T1, APG05083.1 (Bacillus sp.)
T1 chain: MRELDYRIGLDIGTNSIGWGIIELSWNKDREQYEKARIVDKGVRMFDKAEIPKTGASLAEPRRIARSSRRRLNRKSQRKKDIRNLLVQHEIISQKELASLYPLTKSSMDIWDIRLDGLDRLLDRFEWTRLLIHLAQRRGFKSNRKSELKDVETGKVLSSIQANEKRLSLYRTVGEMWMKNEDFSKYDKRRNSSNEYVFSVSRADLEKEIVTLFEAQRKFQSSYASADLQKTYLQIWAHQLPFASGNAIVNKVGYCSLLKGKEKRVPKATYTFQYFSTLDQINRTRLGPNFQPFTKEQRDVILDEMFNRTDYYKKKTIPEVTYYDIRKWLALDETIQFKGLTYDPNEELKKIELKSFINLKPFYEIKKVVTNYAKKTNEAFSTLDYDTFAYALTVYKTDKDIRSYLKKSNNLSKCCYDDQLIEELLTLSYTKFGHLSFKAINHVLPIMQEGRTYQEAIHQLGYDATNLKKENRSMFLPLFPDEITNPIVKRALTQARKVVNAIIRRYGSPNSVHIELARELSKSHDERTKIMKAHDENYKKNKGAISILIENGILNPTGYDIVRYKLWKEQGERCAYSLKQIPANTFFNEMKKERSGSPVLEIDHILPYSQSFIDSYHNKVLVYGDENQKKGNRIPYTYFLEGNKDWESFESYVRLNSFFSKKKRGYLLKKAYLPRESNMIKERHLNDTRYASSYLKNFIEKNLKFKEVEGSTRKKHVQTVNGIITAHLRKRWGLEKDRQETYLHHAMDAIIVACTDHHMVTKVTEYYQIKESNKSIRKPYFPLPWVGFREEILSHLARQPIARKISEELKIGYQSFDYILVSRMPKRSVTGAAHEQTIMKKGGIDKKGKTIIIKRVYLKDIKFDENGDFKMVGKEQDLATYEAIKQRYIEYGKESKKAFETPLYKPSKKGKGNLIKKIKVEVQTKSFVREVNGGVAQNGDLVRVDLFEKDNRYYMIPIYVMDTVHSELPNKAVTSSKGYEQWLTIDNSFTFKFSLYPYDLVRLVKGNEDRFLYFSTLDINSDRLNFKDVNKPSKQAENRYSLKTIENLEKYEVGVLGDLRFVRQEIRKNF
Test: cell_activity; HEK293T; PAM NNNNCC
Details: tags: E. coli pRSF-1b expression; human cells: N-term SV40 NLS and 3xFLAG, C-term nucleoplasmin NLS
Description: The constructs described above were introduced into mammalian cells. One day prior to transfection, 1×10⁵ HEK293T cells/well (Sigma) were plated in 24-well dishes in Dulbecco's modified Eagle medium (DMEM) plus 10% (vol/vol) fetal bovine serum (Gibco) and 1% Penicillin-Streptomycin (Gibco). The next day when the cells were at 50-60% confluency, 500 ng of a RGN expression plasmid plus 500 ng of a single gRNA expression plasmid were co-transfected using […] of Lipofectamine 3000 (Thermo Scientific) per well, following the manufacturer's instructions. After 48 hours of growth, total genomic DNA was harvested using a genomic DNA isolation kit (Machery-Nagel) according to the manufacturer's instructions.
Additionally, products from PCR #2 containing Illumina overhang sequences underwent library preparation following the Illumina 16S Metagenomic Sequencing Library protocol. Deep sequencing was performed on an Illumina Mi-Seq platform by a service provider (MOGene). Typically 200,000 of 250 bp paired-end reads (2×100,000 reads) are generated per amplicon. The reads were analyzed using CRISPResso (Pinello, et al. 2016 Nature Biotech, 34:695-697) to calculate the rates of editing. Output alignments were hand-curated to confirm insertion and deletion sites as well as identify microhomology sites at the recombination sites. All experiments were performed in human cells. The “target sequence” is the targeted sequence within the gene target. For each target sequence, the guide RNA comprised the complementary RNA target sequence and the appropriate sgRNA depending on the RGN used.
In the case of B1, the activity is reported as 11.3 % editing. Molecule B2 has an activity of 8.2 % editing.

These molecules were tested on T2, APG05459.1 (Enterococcus sp.) (assay: cleavage_in_vitro). Details: not given.
T2 sequence: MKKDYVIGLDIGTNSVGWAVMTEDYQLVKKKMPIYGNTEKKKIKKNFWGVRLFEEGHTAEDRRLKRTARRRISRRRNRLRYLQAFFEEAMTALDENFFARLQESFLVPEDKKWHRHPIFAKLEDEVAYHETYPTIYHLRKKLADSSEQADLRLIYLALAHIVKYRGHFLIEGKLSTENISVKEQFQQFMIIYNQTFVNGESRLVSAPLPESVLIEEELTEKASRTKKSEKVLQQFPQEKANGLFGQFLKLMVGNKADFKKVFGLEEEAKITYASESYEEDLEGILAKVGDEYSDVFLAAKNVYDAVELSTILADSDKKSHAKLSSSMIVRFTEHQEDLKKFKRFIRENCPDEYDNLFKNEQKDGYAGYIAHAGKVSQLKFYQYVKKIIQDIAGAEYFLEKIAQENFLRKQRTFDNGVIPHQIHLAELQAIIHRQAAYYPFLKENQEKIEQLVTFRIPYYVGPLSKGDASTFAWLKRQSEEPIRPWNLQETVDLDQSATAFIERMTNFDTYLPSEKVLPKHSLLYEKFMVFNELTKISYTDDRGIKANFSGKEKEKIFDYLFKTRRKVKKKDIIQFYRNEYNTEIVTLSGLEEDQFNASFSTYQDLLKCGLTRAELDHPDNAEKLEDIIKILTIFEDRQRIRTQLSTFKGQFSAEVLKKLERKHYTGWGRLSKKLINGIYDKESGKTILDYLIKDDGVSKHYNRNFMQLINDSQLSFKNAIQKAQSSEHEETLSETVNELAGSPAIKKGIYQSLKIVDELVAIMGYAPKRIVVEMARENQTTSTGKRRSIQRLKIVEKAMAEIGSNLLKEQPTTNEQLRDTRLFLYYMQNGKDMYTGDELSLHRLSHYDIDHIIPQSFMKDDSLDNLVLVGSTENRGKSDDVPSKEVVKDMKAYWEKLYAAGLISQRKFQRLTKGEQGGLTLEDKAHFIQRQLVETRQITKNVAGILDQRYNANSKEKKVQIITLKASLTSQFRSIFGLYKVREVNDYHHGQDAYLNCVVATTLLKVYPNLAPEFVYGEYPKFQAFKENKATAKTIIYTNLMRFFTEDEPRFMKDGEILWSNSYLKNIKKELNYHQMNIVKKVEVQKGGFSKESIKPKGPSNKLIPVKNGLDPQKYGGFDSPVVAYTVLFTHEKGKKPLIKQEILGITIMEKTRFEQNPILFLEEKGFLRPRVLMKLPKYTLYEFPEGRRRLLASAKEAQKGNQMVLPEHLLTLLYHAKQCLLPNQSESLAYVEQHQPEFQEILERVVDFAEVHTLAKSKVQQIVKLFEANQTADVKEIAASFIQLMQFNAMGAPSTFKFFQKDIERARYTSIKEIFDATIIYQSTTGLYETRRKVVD
For “GAGCGGACAGCAGCUUCCUAUAUCUCGUACNNNNNNNNNNNNNNNNNNNNNNNNNGUUUUAGAGUCAUGUUAAAGAACAUAGCAAGUUAAAAUAAGGUUUUAACCGUAAUCAACUGUAAAGUGGCGCUGUUUCGGCGCUUUUUUUGUUU / GAGCGGACTGCAGCTTCCTATATCTCGTAC / GTACGAGATATAGGAAGCTGCAGTCCGCTC [Sequence 1 sgRNA for APG05459.1 ; target mismatch 22]”, the activity was 48 % cleaved. “GAGCGGACAGCAGCUUCCUAUAUCUCGUACNNNNNNNNNNNNNNNNNNNNNNNNNGUUUUAGAGUCAUGUUAAAGAACAUAGCAAGUUAAAAUAAGGUUUUAACCGUAAUCAACUGUAAAGUGGCGCUGUUUCGGCGCUUUUUUUGUUU / GAGCGGACAGCACCTTCCTATATCTCGTAC / GTACGAGATATAGGAAGGTGCTGTCCGCTC [Sequence 1 sgRNA for APG05459.1 ; target mismatch 18]” was tested, and the activity was 0 % cleaved. Work on “GAGCGGACAGCAGCUUCCUAUAUCUCGUACNNNNNNNNNNNNNNNNNNNNNNNNNGUUUUAGAGUCAUGUUAAAGAACAUAGCAAGUUAAAAUAAGGUUUUAACCGUAAUCAACUGUAAAGUGGCGCUGUUUCGGCGCUUUUUUUGUUU / GAGCGGACAGCAGCTTCCTATAACTCGTAC / GTACGAGTTATAGGAAGCTGCTGTCCGCTC [Sequence 1 sgRNA for APG05459.1 ; target mismatch 8]” yielded an activity of 51 % cleaved. With “GAGCGGACAGCAGCUUCCUAUAUCUCGUACNNNNNNNNNNNNNNNNNNNNNNNNNGUUUUAGAGUCAUGUUAAAGAACAUAGCAAGUUAAAAUAAGGUUUUAACCGUAAUCAACUGUAAAGUGGCGCUGUUUCGGCGCUUUUUUUGUUU / GAGCGGACAGCAGCTTCGTATATCTCGTAC / GTACGAGATATACGAAGCTGCTGTCCGCTC [Sequence 1 sgRNA for APG05459.1 ; target mismatch 13]” the activity was 18 % cleaved. With “GAGCGGACAGCAGCUUCCUAUAUCUCGUACNNNNNNNNNNNNNNNNNNNNNNNNNGUUUUAGAGUCAUGUUAAAGAACAUAGCAAGUUAAAAUAAGGUUUUAACCGUAAUCAACUGUAAAGUGGCGCUGUUUCGGCGCUUUUUUUGUUU / CAGCGGACAGCAGCTTCCTATATCTCGTAC / GTACGAGATATAGGAAGCTGCTGTCCGCTG [Sequence 1 sgRNA for APG05459.1 ; target mismatch 30]” the activity was 57 % cleaved. Molecule “GAGCGGACAGCAGCUUCCUAUAUCUCGUACNNNNNNNNNNNNNNNNNNNNNNNNNGUUUUAGAGUCAUGUUAAAGAACAUAGCAAGUUAAAAUAAGGUUUUAACCGUAAUCAACUGUAAAGUGGCGCUGUUUCGGCGCUUUUUUUGUUU / GAGCGGACAGCAGCTTCCTATATCTCGTAG / CTACGAGATATAGGAAGCTGCTGTCCGCTC [Sequence 1 sgRNA for APG05459.1 ; target mismatch 1]” has an activity of 0 % cleaved. With “GAGCGGACAGCAGCUUCCUAUAUCUCGUACNNNNNNNNNNNNNNNNNNNNNNNNNGUUUUAGAGUCAUGUUAAAGAACAUAGCAAGUUAAAAUAAGGUUUUAACCGUAAUCAACUGUAAAGUGGCGCUGUUUCGGCGCUUUUUUUGUUU / GAGCGGACAGCAGCTTCCTATATCTCGTTC / GAACGAGATATAGGAAGCTGCTGTCCGCTC [Sequence 1 sgRNA for APG05459.1 ; target mismatch 2]” the activity was 74 % cleaved. “GAGCGGACAGCAGCUUCCUAUAUCUCGUACNNNNNNNNNNNNNNNNNNNNNNNNNGUUUUAGAGUCAUGUUAAAGAACAUAGCAAGUUAAAAUAAGGUUUUAACCGUAAUCAACUGUAAAGUGGCGCUGUUUCGGCGCUUUUUUUGUUU / GAGCGGACAGCAGCTTCCTATATCTGGTAC / GTACCAGATATAGGAAGCTGCTGTCCGCTC [Sequence 1 sgRNA for APG05459.1 ; target mismatch 5]” was tested, and the activity was 0 % cleaved.

Same assay, conditions: PAM SEQ 41; blunt cut 3 from PAM (Table 3)
“GAGCGGACAGCAGCUUCCUAUAUCUCGUACNNNNNNNNNNNNNNNNNNNNNNNNNGUUUUAGAGUCAUGUUAAAGAACAUAGCAAGUUAAAAUAAGGUUUUAACCGUAAUCAACUGUAAAGUGGCGCUGUUUCGGCGCUUUUUUUGUUU / GAGCGGACAGCAGCTTCCTATATCTCGTAC / GTACGAGATATAGGAAGCTGCTGTCCGCTC [Sequence 1 sgRNA for APG05459.1 ; Sequence 1 target]” showed an activity of 67 % cleaved.

Same assay, conditions: incompatible PAM
“GAGCGGACAGCAGCUUCCUAUAUCUCGUACNNNNNNNNNNNNNNNNNNNNNNNNNGUUUUAGAGUCAUGUUAAAGAACAUAGCAAGUUAAAAUAAGGUUUUAACCGUAAUCAACUGUAAAGUGGCGCUGUUUCGGCGCUUUUUUUGUUU / GAGCGGACAGCAGCTTCCTATATCTCGTAC / GTACGAGATATAGGAAGCTGCTGTCCGCTC” showed an activity of 0 % cleaved.
